For six molecules, Ki, EC50 (cAMP) and intrinsic activity (cAMP, NDP-α-MSH is 100%) results are on record in patent US10660939.

The target in assay [1] is human melanocortin receptor-4 (human), P32245. As to the kind of experiment: competition with [I125]-NDP-α-MSH, hMC4r HEK-293 membranes. As to conditions: remark: other sources report otherwise.
Assay [2] deals with human melanocortin receptor-4 (human) (UniProt P32245). The assay is described as above.
Assay [3] shares this target. As to the kind of experiment: competition with Eu-NDP-α-MSH, hMC4r HEK-293 membranes.
The target is the same in assay [4]. The assay is described as follows: cell-based or functional assay.

Positions of bridges follow the written chain, without caps; N, C: chain ends. Non-standard residues stand in square brackets, D forms with d. Dab = NCC[C@H](N)C(=O)O

Sequence of human melanocortin receptor-4 (human) (P32245 whole entry): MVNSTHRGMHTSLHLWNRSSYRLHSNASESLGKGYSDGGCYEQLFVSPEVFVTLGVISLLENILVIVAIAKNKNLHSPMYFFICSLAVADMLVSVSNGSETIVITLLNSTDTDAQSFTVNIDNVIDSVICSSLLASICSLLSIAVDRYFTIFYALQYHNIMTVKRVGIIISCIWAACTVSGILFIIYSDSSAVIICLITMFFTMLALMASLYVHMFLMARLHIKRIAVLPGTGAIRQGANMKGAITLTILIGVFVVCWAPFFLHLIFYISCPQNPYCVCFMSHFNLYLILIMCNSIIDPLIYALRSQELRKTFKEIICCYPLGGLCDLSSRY
Sequence of human melanocortin receptor-4 (human), P32245 (P32245 whole entry): as above

In general, Ki refers to a dissociation constant, usually derived from enzyme kinetics or from competition with a known ligand. A low value points to higher affinity. Ac-RD[Dab][dF]RWK-NH2 (lactam 2-7) [Peptide No. 163] registered a Ki in assay [1] of 4 nM.

B1: Peptide No. 144 (peptide)
peptide: RXXFRWX
modifications: N-terminal Ac; hGlu 2 (X); Dab 3 (X); D-Phe 4; Dab 7 (X); cyclo(hGlu 2-Dab 7); C-terminal OH
B1 gave a Ki in assay [2] of 45 nM.

B2: Peptide No. 136 (peptide)
peptide: RXXFRWX
modifications: N-terminal Ac; Dab 2 (X); Dab 3 (X); D-Phe 4; hGlu 7 (X); cyclo(Dab 2-hGlu 7); C-terminal OH
B2 gave a Ki in assay [2] of 35 nM.

B3: Peptide No. 127 (peptide)
peptide: RXXFRWX
modifications: N-terminal Ac; hGlu 2 (X); Dab 3 (X); D-Phe 4; Dab 7 (X); cyclo(hGlu 2-Dab 7); C-terminal NH2
In assay [3], B3 registered a Ki of 2 nM. Further, in assay [4], the EC50 (cAMP) turned out to be 0.06 nM and the intrinsic activity (cAMP, NDP-α-MSH is 100%) is 98%.

B4: Peptide No. 129 (peptide)
peptide: RXXFRWX
modifications: N-terminal Ac; Dab 2 (X); Dab 3 (X); D-Phe 4; hGlu 7 (X); cyclo(Dab 2-hGlu 7); C-terminal NH2
B4 returned a Ki in assay [3] of 4 nM. In assay [4], this molecule gave an EC50 (cAMP) of 0.065 nM and an intrinsic activity (cAMP, NDP-α-MSH is 100%) of 96%. In assay [1], Ac-RD[Dab][dF]RWK-OH (lactam 2-7) [Peptide No. 164] gave a Ki of 57 nM.
